From patent publication US20160264664A1 (Ablynx, published 2016)

What was measured:
mouse P2X7 [1] = biological target: T1, mouse P2X7 (mouse, UniProt Q9Z1M0 1-595); experiment: phage ELISA on fixed mP2X7-CHO vs untransfected CHO cells;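 note: phage culture supernatant diluted 10-fold, applied for 1 h to paraformaldehyde-fixed, BSA-blocked cells in 96-well plates, with bound phage read via HRP-linked anti-M13 antibody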
T1 construct: on transfected CHO or Hek293 cells, or endogenous on Yac-1 cells; also called mP2X7; mouse purinoceptor P2X7
T1 sequence: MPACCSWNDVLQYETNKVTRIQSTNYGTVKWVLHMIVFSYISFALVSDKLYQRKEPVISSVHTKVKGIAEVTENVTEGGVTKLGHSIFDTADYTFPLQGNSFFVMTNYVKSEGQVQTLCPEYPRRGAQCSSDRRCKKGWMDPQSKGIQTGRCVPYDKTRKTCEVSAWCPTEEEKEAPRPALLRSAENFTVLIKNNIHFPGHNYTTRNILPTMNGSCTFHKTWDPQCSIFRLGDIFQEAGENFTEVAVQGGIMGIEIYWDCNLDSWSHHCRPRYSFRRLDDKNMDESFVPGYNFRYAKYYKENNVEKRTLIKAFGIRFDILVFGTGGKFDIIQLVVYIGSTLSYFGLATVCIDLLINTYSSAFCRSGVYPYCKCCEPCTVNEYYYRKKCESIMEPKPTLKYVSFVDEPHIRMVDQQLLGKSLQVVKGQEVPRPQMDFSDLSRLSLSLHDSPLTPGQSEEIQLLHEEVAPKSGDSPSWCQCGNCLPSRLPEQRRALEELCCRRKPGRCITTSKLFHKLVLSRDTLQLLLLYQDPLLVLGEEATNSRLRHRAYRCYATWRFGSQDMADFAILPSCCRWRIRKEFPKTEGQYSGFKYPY
Experimental: (§1) Sub-confluent cells were rinsed with PBS and fixed using 4% paraformaldehyde in PBS for 10 minutes at RT. Fixed cells were washed three times with PBS, and blocked with 2% BSA in PBS for 2 hours. Following blocking, 10-fold diluted culture supernatant containing phage was added and incubated for 1 hour. Cell-bound phage was detected via mouse anti-M13-HRP-conjugate (GE Healthcare, Cat nr. E2886). Rat mAb Hano43 was used as positive control.

human P2X7 = biological target: T2, human P2X7 (human, UniProt Q99572 1-595); experiment: flow cytometry, Nanobody pre-incubated with anti-Myc-FITC
T2 construct: on transfected Hek293 cells; also called hP2X7
T2 sequence: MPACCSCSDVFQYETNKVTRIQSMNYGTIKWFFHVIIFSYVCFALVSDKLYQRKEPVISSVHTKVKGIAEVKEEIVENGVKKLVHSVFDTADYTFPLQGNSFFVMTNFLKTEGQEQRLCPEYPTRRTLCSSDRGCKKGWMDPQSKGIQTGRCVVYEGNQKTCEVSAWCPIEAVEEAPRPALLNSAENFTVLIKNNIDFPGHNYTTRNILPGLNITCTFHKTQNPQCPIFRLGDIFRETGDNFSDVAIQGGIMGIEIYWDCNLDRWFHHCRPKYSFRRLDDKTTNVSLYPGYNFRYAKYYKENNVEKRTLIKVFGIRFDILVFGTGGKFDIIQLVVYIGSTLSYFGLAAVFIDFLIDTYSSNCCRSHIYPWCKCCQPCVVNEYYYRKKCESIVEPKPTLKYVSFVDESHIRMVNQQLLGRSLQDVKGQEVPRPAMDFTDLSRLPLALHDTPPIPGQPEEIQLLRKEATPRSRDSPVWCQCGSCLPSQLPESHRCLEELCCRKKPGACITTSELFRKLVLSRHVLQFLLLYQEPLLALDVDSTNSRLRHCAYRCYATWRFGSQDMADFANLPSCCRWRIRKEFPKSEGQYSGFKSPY

human P2X4 = biological target: T3, human P2X4 (human, UniProt Q99571 1-388); experiment: as above
T3 construct: whole, on cells; also called hP2X4
T3 sequence (looked up): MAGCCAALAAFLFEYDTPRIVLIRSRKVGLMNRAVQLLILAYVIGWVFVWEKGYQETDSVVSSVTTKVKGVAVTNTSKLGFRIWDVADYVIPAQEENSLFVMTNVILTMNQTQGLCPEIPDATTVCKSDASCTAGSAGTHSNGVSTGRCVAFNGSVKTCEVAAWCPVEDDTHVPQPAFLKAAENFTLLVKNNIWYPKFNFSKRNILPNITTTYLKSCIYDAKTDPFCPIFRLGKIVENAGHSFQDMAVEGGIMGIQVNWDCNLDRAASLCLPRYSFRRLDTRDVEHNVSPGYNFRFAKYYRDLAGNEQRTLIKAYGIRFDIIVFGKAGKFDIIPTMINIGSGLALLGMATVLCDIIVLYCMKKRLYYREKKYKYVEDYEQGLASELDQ

mouse P2X7 [2] = biological target: T1, mouse P2X7; experiment: flow cytometry, periplasmic extract pre-incubated with anti-myc-FITC, on mP2X7-Hek293 cells;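 note: periplasmic extract diluted 10-fold and premixed 45 min at 4 °C with FITC anti-myc antibody, giving pseudo-bivalent Nanobodies, before binding to the cells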
Experimental: Ten-fold diluted PE were pre-incubation with 0.5 μg anti-myc FITC-conjugated antibodies (AbD Serotec, cat no. MCA2200F) (creating pseudo-bivalent Nanobodies in order to increase binding strength) in 0.1 ml PBS/10% FCS for 45 minutes at 4° C. […] Alternatively, sequential staining of 10-fold diluted PE with anti-myc FITC-conjugated antibodies was done after incubation with the cells.

mouse P2X7 [3] = biological target: T1, mouse P2X7; experiment: phage ELISA, mP2X7-CHO vs control CHO cells
Experimental: as §1

B1: P2X7PMP1A8 (VHH)
VHH: EVQLVESGGGLVQTGGSLRLSCAASGFTLDDYAIAWFRQAPGKEREGVSILSSIGKTFYADSVKDRFSITADGAKTTVFLQMNSLKPGDTAIYYCVAGHFVYNDGAISLNTARGSGFWGQGAQVTVSS
notes: family 2; on phage or c-myc/His6-tagged in assays
In the case of B1, the “Fold Cho P2X7/wt (phage ELISA)” value (mouse P2X7 [1]) is reported as 20 fold, the binding result (human P2X7) is reported as “no binding (tested: 147 nM)” and the binding result (human P2X4) is reported as “no binding (tested: 147 nM)”. For the same binder, the “MFI FACS (pre-Myc incubation)” value (mouse P2X7 [2]) was 18 MFI and the “absorption ratio (ELISA)” value (mouse P2X7 [3]) was 21 ratio.

B2: P2X7PMP20C9 (VHH)
VHH: EVQLVESGGGLVQTGGSLRLSCAASGFTLDDYAIAWFRQAPGKEREGVSILSSIGKTFYADSAKDRFSITADGAKTTVFLQMNSLKPEDTAIYYCVAGHFVYNDGAISLNTARGSGFWGQGTQVTVSS
notes: as for B1
In the case of B2, the “Fold Cho P2X7/wt (phage ELISA)” value (mouse P2X7 [1]) is reported as 11 fold, the binding result (human P2X7) is reported as “no binding (tested: 147 nM)” and the binding result (human P2X4) is reported as “no binding (tested: 147 nM)”. The “MFI FACS (pre-Myc incubation)” value (mouse P2X7 [2]) was 97 MFI and the “absorption ratio (ELISA)” value (mouse P2X7 [3]) was 11 ratio.

B3: P2X7PMP1G6 (VHH)
VHH: EVQLVESGGGLVQAGGSLRLSCAASPGAFSSFNMGWFRQTPGKEREFVAATSWSDISTYYADSVKGRFTISRDNAKNTVTLEMNSLKPEDTAVYYCAAGYYRGGYLGYRLTLEGSYDVWGQGTQVTVSS
notes: family 15; on phage or c-myc/His6-tagged in assays
In the case of B3, the “Fold Cho P2X7/wt (phage ELISA)” value (mouse P2X7 [1]) is reported as 12 fold, the binding result (human P2X7) is reported as “no binding (tested: 147 nM)” and the binding result (human P2X4) is reported as “no binding (tested: 147 nM)”. The “MFI FACS (pre-Myc incubation)” value (mouse P2X7 [2]) was 11 MFI and the “absorption ratio (ELISA)” value (mouse P2X7 [3]) was 12 ratio.

B4: P2X7PMP16D9 (VHH)
VHH: EVQLVESGGGLVQAGGSLRLSCAASPGTFSSFNMGWFRQTPGKEREFVAATSWSDISTYYADSVKGRFTISRDNAKNTVTLEMNSLKPEDTAVYYCAAGYYRGGYLGYRLTLEGSYDVWGQGTQVTVSS
notes: as for B3
B4 was tested, and the “Fold Cho P2X7/wt (phage ELISA)” value (mouse P2X7 [1]) was 7 fold, the binding result (human P2X7) was “no binding (tested: 147 nM)” and the binding result (human P2X4) was “no binding (tested: 147 nM)”. The “MFI FACS (pre-Myc incubation)” value (mouse P2X7 [2]) was 53 MFI and the “absorption ratio (ELISA)” value (mouse P2X7 [3]) was 7 ratio.

B5: P2X7PMP18C1 (VHH)
VHH: EVQLVESGGDLVQPGGSLRLSCVASGFALEEHAIGWFRQAPGKEREGVSLSSYLGAAYYATSVKGRFTISRDNAKNTVTLQMNSLKPEDTAVYYCARGHFTYDDGRITIRSVDYWGKGTLVTVSS
notes: family 25; on phage or c-myc/His6-tagged in assays
B5 was tested, and the “Fold Cho P2X7/wt (phage ELISA)” value (mouse P2X7 [1]) was 18 fold, the binding result (human P2X7) was “no binding (tested: 147 nM)” and the binding result (human P2X4) was “no binding (tested: 147 nM)”. The “MFI FACS (pre-Myc incubation)” value (mouse P2X7 [2]) was 63 MFI and the “absorption ratio (ELISA)” value (mouse P2X7 [3]) was 18 ratio.

B6: P2X7PMP1C9 (VHH)
VHH: EVQLVESGGGLVQTGGSLRLSCAASGFTLDDYAIAWFRQAPGKEREGVSILSSIGKTFYADSVKDRFSITADGAKTTVFLQMNSLKPEDTAIYYCVAGHFVYNDGAISLNTARGSGFWGQGAQVTVSS
notes: as for B1
For B6, the “MFI FACS (pre-Myc incubation)” value (mouse P2X7 [2]) was 19 MFI and the “absorption ratio (ELISA)” value (mouse P2X7 [3]) was 6 ratio.

B7: P2X7PMP20B10 (VHH)
VHH: EVQLVESGGGLVQTGGSLRLSCAASGFTLDDYAIAWFRQAPGKEREGVSILSSIGKTFYADSVKDRFSITADGAKTTVFLQMNSLKPEDTAIYYCVAGHFVYNDGAISLNTARGSGFWGQGTQVTVSS
notes: as for B1
In the case of B7, the “MFI FACS (pre-Myc incubation)” value (mouse P2X7 [2]) is reported as 85 MFI and the “absorption ratio (ELISA)” value (mouse P2X7 [3]) is reported as 8 ratio.

B8: P2X7PMP6A11 (VHH)
VHH: EVQLVESGGGLVQAGGSLRLSCAASGNFFRVNTMAWYRQAPGKQRELVADITRGDRTNYADTVNGRFTISRDNVRNTVYLQMNGLKPEDTAAYYCYARIELGVLEPRDYWGQGTQVTVSS
notes: family 5, 2; on phage or c-myc/His6-tagged in assays
B8 was tested, and the “MFI FACS (pre-Myc incubation)” value (mouse P2X7 [2]) was 53 MFI and the “absorption ratio (ELISA)” value (mouse P2X7 [3]) was 17 ratio.

B9: P2X7PMP8A11 (VHH)
VHH: EVQLVESGGGLVQAGGSLRLSCAASGSFFRVNNMAWYRQAPGKQRELVADITRGDRTNYADSVNGRFTISRDNVRNTVYLQMDGLKPEDTAVYYCYARIELGVLVPRDYWGQGTQVTVSS
notes: as for B8
B9 was tested, and the “MFI FACS (pre-Myc incubation)” value (mouse P2X7 [2]) was 17 MFI and the “absorption ratio (ELISA)” value (mouse P2X7 [3]) was 11 ratio.

B10: P2X7PMP8B4 (VHH)
VHH: EVQLVESGGGLVQAGGSLRLSCAASGNFFRVNTMAWYRQAPGKQRELVADITRGDRTNYADTVNGRFTISRDNVRNTVYLQMNSLKPEDTAAYYCYARIELGVLEPRDYWGQGTQVTVSS
notes: as for B8
For B10, the “MFI FACS (pre-Myc incubation)” value (mouse P2X7 [2]) was 71 MFI and the “absorption ratio (ELISA)” value (mouse P2X7 [3]) was 13 ratio.

B11: P2X7PMP8B12 (VHH)
VHH: EVQLVESGGGLVQAGGSLRLSCAASGSFFRVNVMAWYRQGPGKQRELVADITRGDRTNYADSVNGRFTISRDNVRNTVYLQMNGLKPEDTAVYYCYATIELGVLEPRDYWGQGTQVTVSS
notes: family 5, 3; on phage or c-myc/His6-tagged in assays
With B11 the “MFI FACS (pre-Myc incubation)” value (mouse P2X7 [2]) was 93 MFI and the “absorption ratio (ELISA)” value (mouse P2X7 [3]) was 38 ratio.

B12: P2X7PMP8C12 (VHH)
VHH: EVQLVESGGGLVQAGGSLRLSCAASGSFFRVNNMAWYRQAPGKQRELVADITRGDRTNYADSVNGRFTISRDNVRNTVYLQMNGLKPEDTAVYYCYATIELGVLEPRDYWGQGTQVTVSS
notes: as for B11
For B12, the “MFI FACS (pre-Myc incubation)” value (mouse P2X7 [2]) was 89 MFI and the “absorption ratio (ELISA)” value (mouse P2X7 [3]) was 28 ratio.

B13: P2X7PMP8D10 (VHH)
VHH: EVQLVESGGGLVQPGGSLRLSCAASGSFFRVNNMAWYRQAPGKQRELVADITRGDRTNYADSVNGRFTISRDNVRNTVYLQMNGLKPEDTAVYYCYATIELGVLEPRDYWGQGTQVTVSS
notes: as for B11
For B13, the “MFI FACS (pre-Myc incubation)” value (mouse P2X7 [2]) was 94 MFI and the “absorption ratio (ELISA)” value (mouse P2X7 [3]) was 18 ratio.

B14: P2X7PMP8E6 (VHH)
VHH: EVQLVESGGGLVQAGGPLRLSCAASGNFFRVNTMAWYRQAPGKQRELVADITRGDRTNYADTVNGRFTISRDNVRNTVYLQMNGLKPEDTAAYYCYARIELGVLEPRDYWGQGTQVTVSS
notes: as for B8
For B14, the “MFI FACS (pre-Myc incubation)” value (mouse P2X7 [2]) was 69 MFI and the “absorption ratio (ELISA)” value (mouse P2X7 [3]) was 12 ratio.

B15: P2X7PMP8H4 (VHH)
VHH: EVQLVESGGGLVQAGGSLRLSCAASGSFFRVNNMAWYRQGPGKQRELVADITRGDRTNYADSVNGRFTISRDNVRNTVYLQMDGLKPEDTAVYYCYATIELGVLVPRDYWGQGTQVTVSS
notes: as for B11
B15 was tested, and the “MFI FACS (pre-Myc incubation)” value (mouse P2X7 [2]) was 65 MFI and the “absorption ratio (ELISA)” value (mouse P2X7 [3]) was 27 ratio.

B16: P2X7PMP8H5 (VHH)
VHH: EMQLVESGGGLVQAGGSLRLSCAASGNFFRVNTMAWYRQAPGKQRELVADITRGDRTNYADTVNGRFTISRDNVRNTVYLQMNGLKPEDTAAYYCYARIELGVLEPRDYWGQGTQVTVSS
notes: as for B8
B16 was tested, and the “MFI FACS (pre-Myc incubation)” value (mouse P2X7 [2]) was 24 MFI and the “absorption ratio (ELISA)” value (mouse P2X7 [3]) was 12 ratio.

B17: P2X7PMP8H6 (VHH)
VHH: EVQLVESGGGLVQAGGSLRLSCAASGSFFRVNNMAWYRQAPGKQRELVADITRGDRTNYADSVNGRFTISRDNVRNTVYLQMNGLKPEDTAVYYCYARIELGPLVPRDYWGQGTQVTVSS
notes: as for B8
With B17 the “MFI FACS (pre-Myc incubation)” value (mouse P2X7 [2]) was 43 MFI and the “absorption ratio (ELISA)” value (mouse P2X7 [3]) was 17 ratio.

B18: P2X7PMP8H10 (VHH)
VHH: EVQLVESGGGLVQAGGSLRLSCAASGSFFRVNNMAWYRQGPGKQRELVADITRGDRTNYADSVNGRFTISRDNVRNTVYLQMNGLKPEDTAVYYCYATIELGVLEPRDYWGQGTQVTVSS
notes: as for B11
With B18 the “MFI FACS (pre-Myc incubation)” value (mouse P2X7 [2]) was 94 MFI and the “absorption ratio (ELISA)” value (mouse P2X7 [3]) was 19 ratio.
